Experimental data as given in patent US20220010310A1, “An lncRNA integrates a DNA-PK-mediated DNA damage response and vascular senescence” (The Brigham and Women`s Hospital, Inc., priority 2018, published 2022).

Target: purified DNA-PK protein (Homo sapiens, UniProt P78527)
Assay: DNA-PK kinase activity, ATP to ADP conversion (luminescence)
Format: biochemical
Settings: 10 pmol transcript, ATP 150 μM
Description: FIGS. 9A-I. Identification of DNA-PK as an SNHG12 interactor. (A) Illustration of lncRNA pulldown using nuclear protein extract from HUVECs for in vitro transcribed biotin-labeled SNHG12 or negative control LacZ followed by streptavidin beads pulldown. Protein eluate was sent for MS. (B) Protein hits for SNHG12 (n=2, two technical replicates each). (C) LncRNA pulldown of biotin-labeled SNHG12 compared to negative controls LacZ and antisense transcript for SNHG12 (n=3). (D) RT-qPCR analysis for intravenous delivery of biotinylated SNHG12 to the aorta (n=4 per group). P value was determined by Student's t test. […] P value was determined by Student's t test. (H) Purified DNA-PK protein was incubated with in vitro transcribed LacZ or SNHG12 transcript (10 pmol) together with ATP (150 μM) and luminescence was measured for detecting conversion to ADP. […] P value was determined by Student's t test. (I) DNA-PK protein was incubated for 1 hr with the DNA-PK kinase inhibitor NU7441 (1, 10, 100 μM) to assess DNA-PK kinase activity by luminescence (n=1). […]
To identify the functional consequences of the interaction of SNHG12 with DNA-PK, we assessed the effect of SNHG12 on DNA-PK's kinase activity (DNA-PKcs). Incubation of purified DNA-PK protein with in vitro transcribed SNHG12 assessed the ability of DNA-PKcs to convert ATP to ADP. […]

B1: SNHG12: T7 in vitro transcribed SNHG12 lncRNA transcript used in MST and DNA-PK kinase assays (nucleic acid, listed as Homo sapiens)
chain: TCTAGAGCTAGCGAATTCCTTTCTCCCCGCCGCATTCCCGGTGTCGACTTACTAGCTGCAAGCCTCTGCCTGCCTTCCTGCGCGCCGTTCCCCGCTAGTCGCTGCTGCTGGCGCGCACTCGCCGGGTTTTTCCTCCCACGGCCTCGAGATGGTGGTGAATGTGGCACGGAGGAGCCGGGCCTTCCAACCCGGTGGGCCCGAGCTCCGAAAGGCCCCCTCGGCAGTGAGAGGGGCGGGAGCCCGCGGGGGCCGCGCCCTTCTCTCGCTTCGGACTGCGCAACGCTGCGCTCTGGGCTGACAGGCGGATAAAACGGTCCCATCAAGACTGAGAAAAAGCACACCAGCTATTGGCACAGCGTGGGCAGTGGGGCCTACAGGATGACTGACTTAGTCTACAGAGATCCCGGCGTACTTAAGCAGATGAAGACTCTTAAGATGACAGAAGGTGATTTTTCTGGTGATCGAGGACTTCCGGGGTAATGACAGTGATGAAATGCAGGGGACCTGGTTGCCCCCAAGTTTCCTGGCAGTGTGTGATACTGAGGAGGTGAGCTTGTTTCTGGAGCTGTGCTTTAAGGTAAAGTTGATCAGCTTAATCCTCCTGATCCCTTTCCCATCGGATCTGAACACTGGTCTTGGTGGTCGTAAAAGGAGGAAAAGTAATAGTGAAGCTGGCCTAAATGTTGTAATCTGGTATATGGCATGTGGGCTAGTTTCAGACAGGTTTCAGAGATGGTTGGATCTCTGAAATTGTAAAATGAAGTATAATCTTAGGCTAAGGGAAGGATGCGTGTGAAGCTCTGGAGGTTGGTATAGTAATAGCTGACCTATTACTGCATTTGGGAGGGATCTGTCATAGCTTCCTTGCCTCTTAATTAAGGGTGGTGTTTTTTTCTTTTAGATTCATGTTACATGTAAAGCTGTCCTCATTTGTGACTATGGACCTATGGAGTTGGGACAATCTCTATGGGAAGCAGAAGGCAAGGACCCCGGTCATTTTAGGTAGAAACAACAGCATGCTAATGCAAAAAATTATGCAGTGTGCTACTGAACTTCAGAGGTGATCAATAAAAGAAGAATAAAAAGACTAATAAAAGTAGAATTCTGATCAGGATCC
increase of DNA-PKcs kinase activity compared to the LacZ control: 2 fold
